B1: Unconventional myosin-VI (Homo sapiens), Q9UM54 (parent)
chain: MEDGKPVWAPHPTDGFQMGNIVDIGPDSLTIEPLNQKGKTFLALINQVFPAEEDSKKDVEDNCSLMYLNEATLLHNIKVRYSKDRIYTYVANILIAVNPYFDIPKIYSSEAIKSYQGKSLGTRPPHVFAIADKAFRDMKVLKMSQSIIVSGESGAGKTENTKFVLRYLTESYGTGQDIDDRIVEANPLLEAFGNAKTVRNNNSSRFGKFVEIHFNEKSSVVGGFVSHYLLEKSRICVQGKEERNYHIFYRLCAGASEDIREKLHLSSPDNFRYLNRGCTRYFANKETDKQILQNRKSPEYLKAGSMKDPLLDDHGDFIRMCTAMKKIGLDDEEKLDLFRVVAGVLHLGNIDFEEAGSTSGGCNLKNKSAQSLEYCAELLGLDQDDLRVSLTTRVMLTTAGGTKGTVIKVPLKVEQANNARDALAKTVYSHLFDHVVNRVNQCFPFETSSYFIGVLDIAGFEYFEHNSFEQFCINYCNEKLQQFFNERILKEEQELYQKEGLGVNEVHYVDNQDCIDLIEAKLVGILDILDEENRLPQPSDQHFTSAVHQKHKDHFRLTIPRKSKLAVHRNIRDDEGFIIRHFAGAVCYETTQFVEKNNDALHMSLESLICESRDKFIRELFESSTNNNKDTKQKAGKLSFISVGNKFKTQLNLLLDKLRSTGASFIRCIKPNLKMTSHHFEGAQILSQLQCSGMVSVLDLMQGGYPSRASFHELYNMYKKYMPDKLARLDPRLFCKALFKALGLNENDYKFGLTKVFFRPGKFAEFDQIMKSDPDHLAELVKRVNHWLTCSRWKKVQWCSLSVIKLKNKIKYRAEACIKMQKTIRMWLCKRRHKPRIDGLVKVGTLKKRLDKFNEVVSVLKDGKPEMNKQIKNLEISIDTLMAKIKSTMMTQEQIQKEYDALVKSSEELLSALQKKKQQEEEAERLRRIQEEMEKERKRREEDEKRRRKEEEERRMKLEMEAKRKQEEEERKKREDDEKRIQAEVEAQLARQKEEESQQQAVLEQERRDRELALRIAQSEAELISDEAQADLALRRSLDSYPVSKNDGTRPKMTPEQMAKEMSEFLSRGPAVLATKAAAGTKKYDLSKWKYAELRDTINTSCDIELLAACREEFHRRLKVYHAWKSKNKKRNTETEQRAPKSVTDYDFAPFLNNSPQQNPAAQIPARQREIEMNRQQRFFRIPFIRPADQYKDPQSKKKGWWYAHFDGPWIARQMELHPDKPPILLVAGKDDMEMCELNLEETGLTRKRGAEILPRQFEEIWERCGGIQYLQNAIESRQARPTYATAMLQSLLK
B2: Unconventional myosin-VI (Homo sapiens), Q9UM54 (parent)
chain: B1 chain
partner: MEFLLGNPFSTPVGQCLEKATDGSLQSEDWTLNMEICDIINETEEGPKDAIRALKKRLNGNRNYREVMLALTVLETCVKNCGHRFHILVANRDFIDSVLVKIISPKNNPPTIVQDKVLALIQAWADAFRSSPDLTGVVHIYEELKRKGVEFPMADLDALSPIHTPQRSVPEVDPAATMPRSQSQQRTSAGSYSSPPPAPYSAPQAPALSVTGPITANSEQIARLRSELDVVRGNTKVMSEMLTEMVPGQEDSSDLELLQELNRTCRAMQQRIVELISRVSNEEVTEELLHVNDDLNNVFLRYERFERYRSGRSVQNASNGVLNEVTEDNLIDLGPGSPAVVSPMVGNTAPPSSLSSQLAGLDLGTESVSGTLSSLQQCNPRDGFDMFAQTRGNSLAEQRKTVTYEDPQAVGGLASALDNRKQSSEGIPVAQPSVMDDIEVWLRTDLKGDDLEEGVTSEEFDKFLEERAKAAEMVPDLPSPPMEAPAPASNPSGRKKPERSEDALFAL

Variants of: B1
Conditions: with TOM1, O60784-1
Chain of TOM1, O60784-1 (O60784 whole entry): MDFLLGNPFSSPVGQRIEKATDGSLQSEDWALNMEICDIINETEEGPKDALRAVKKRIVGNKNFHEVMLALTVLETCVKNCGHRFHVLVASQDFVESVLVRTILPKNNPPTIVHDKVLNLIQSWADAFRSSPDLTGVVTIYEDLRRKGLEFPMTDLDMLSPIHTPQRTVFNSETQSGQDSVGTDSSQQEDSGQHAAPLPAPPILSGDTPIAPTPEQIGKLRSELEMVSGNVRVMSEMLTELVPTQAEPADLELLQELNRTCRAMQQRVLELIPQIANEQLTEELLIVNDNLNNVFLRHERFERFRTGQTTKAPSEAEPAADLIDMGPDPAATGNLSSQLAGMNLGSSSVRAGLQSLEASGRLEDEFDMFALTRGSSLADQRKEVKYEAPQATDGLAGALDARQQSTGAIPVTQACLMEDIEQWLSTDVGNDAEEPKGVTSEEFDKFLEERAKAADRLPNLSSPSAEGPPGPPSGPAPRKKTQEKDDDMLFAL

| Variant | effect of a mutation on the interaction |
| --- | --- |
| W1202L | disrupting interaction strength |

Variants of: B2
Conditions: with tm1l2_human TOM1L2, Q6ZVM7

| Variant | effect of a mutation on the interaction |
| --- | --- |
| W1202L | disrupting interaction strength |

— IntAct's records for PubMed 23023224
